Measured values reported in US20090035317A1, “Peptides binding to vascular endothelial growth factor” (priority 2007, published 2009).
Bridge positions count the residues as written; N and C are the ends. Ends that are not written are not given here.

T1: VEGF (Homo sapiens, UniProt P15692)
T1 sequence (P15692 214-315 limits assumed): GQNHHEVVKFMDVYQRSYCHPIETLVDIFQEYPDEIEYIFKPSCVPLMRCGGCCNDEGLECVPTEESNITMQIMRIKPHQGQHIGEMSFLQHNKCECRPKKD


Key:
[1] = tested on: biotinylated recombinant murine VEGF (rmVEGF); assay: Murine cross-reactivity, flow cytometry; format: binding; settings: rmVEGF at 25 and 250 nM
Procedure: Cells expressing VEGF-binding peptides were incubated with biotinylated recombinant murine VEGF (rmVEGF). Fluorescence labeling was performed with SAPE as previously described. The first seven clones listed in Table 5 as well as v114 were assayed for cross-reactivity with rmVEGF. All of the ligands analyzed bound rmVEGF at concentrations of 25 and 250 nM, as measured by flow cytometry.

VEGF [2] = target: T1, VEGF; settings: Fairbrother et al. (1998); read-out: reported equilibrium dissociation constant (KD); cited from earlier work
VEGF [3] = assay: Equilibrium binding of displayed clones with VEGF at 1 nM and 10 nM; settings: displayed on cell surface
Target sequence in this assay (P15692 207-320 limits assumed): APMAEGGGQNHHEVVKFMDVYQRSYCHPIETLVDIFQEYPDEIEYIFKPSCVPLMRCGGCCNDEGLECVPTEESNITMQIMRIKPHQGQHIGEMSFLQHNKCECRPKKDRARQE

VEGF [4] = assay: Clone characterization: off-rate from VEGF at room temperature (Example 1); format: binding; settings: 10 nM VEGF labeling, FIG. 3, FIG. 4
Procedure: Initial measurements of off-rate were made for each clone in order to narrow down the search for the best binding peptide. Each clone was labeled with 10-nM VEGF. Excess VEGF was washed away, and the protein was allowed to dissociate for 15 and 30 minutes at room temperature. SAPE was added, and secondary labeling was performed on ice. Excel's Regression function was used to calculate koff for each peptide using three time points (0, 15, and 30 minutes) and the standard error for the regression.
Each clone was incubated with 10 nM VEGF and allowed to come to equilibrium. The excess VEGF was washed away, and the cells were separated into 4 aliquots and diluted 1/10 in room temperature PBS. SAPE was added to the appropriate aliquot after 5, 10, 15, and 30 minutes for secondary labeling on ice. The mean fluorescence at these time points was used to determine koff. In most cases, the t=30 minute point could not be incorporated into the regression.
Target sequence in this assay (P15692 207-315 limits assumed): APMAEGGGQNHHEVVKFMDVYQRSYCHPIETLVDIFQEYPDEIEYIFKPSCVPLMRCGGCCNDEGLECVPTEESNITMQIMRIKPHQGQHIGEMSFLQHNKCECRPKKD

biotinylated VEGF = assay: First order dissociation rate constants (koff) of cell-surface displayed peptides, flow cytometry; format: binding; settings: peptide displayed on bacterial cell surface; for RT koff: room temperature
Procedure: (§1) Cells displaying VEGF-binding peptides were first incubated with biotinylated VEGF and allowed to equilibrate at 4° C. After centrifugation, excess VEGF was removed. The cells were then resuspended in buffer, such that the concentration of cells was diluted 1:10, as compared to the VEGF-labeling step. Cells were allowed to incubate in buffer at room temperature or 37° C. for times varying from 5 minutes to 21 hours to allow dissociation of VEGF from the cell surface. After the appropriate amount of time, the cells were placed on ice to stop the dissociation, and streptavidin-phycoerythrin (SAPE) was added for fluorescence labeling. After centrifugation, excess SAPE was removed, and cellular fluorescence was measured by flow cytometry. Fluorescence data as a function of dissociation time was used to determine koff.

VEGF [5] = assay: Specificity: retention of VEGF binding fluorescence in BSA and serum; settings: 10-nM VEGF; serum dilutions; FIG. 5
Procedure: In addition, measurements of specificity were performed for the four peptides whose off-rate could be calculated. Each clone was incubated with 10-nM VEGF in varying dilutions of BSA and serum followed by secondary labeling with SAPE at the same BSA/serum concentration. It was assumed that a specific peptide would retain more fluorescence upon serum addition than a non-specific peptide. The serum was first prepared by incubation with cells overexpressing the CPXopt template, spinning down the cell pellet and any bacteria-specific proteins bound to them, and removing the supernatant for incubation with the selected clones. Adding BSA up to physiological conditions decreased the mean fluorescence of each clone by an average of ˜40%, seemingly indicating some degree of specificity. […] FIG. 5 gives the fluorescence remaining after serum addition relative to initial fluorescence (at a serum dilution of 1/100), which was taken to be a measure of the specificity of the interaction between the peptide and VEGF. […] Therefore, the change in fluorescence of a gated population of positive binding cells was used to determine the specificity metric. In some cases with undiluted serum, a significant fraction of cells (>˜1%) still fell into this positive, and the fluorescence of this small fraction of cells was used to calculate the specificity. […]
Target sequence in this assay (P15692 207-320 limits assumed): as the sequence (P15692 207-320 limits assumed) above

[6] = target: T2, vascular endothelial growth factor (VEGF) (UniProt P15692-4 27-191, limits assumed, biotinylated); assay: apparent equilibrium KD measured from the bacterial cell surface, flow cytometry
T2 construct: Soluble biotinylated VEGF used to label cells that display the peptides; also called biotinylated VEGF

[7] = target: T2, vascular endothelial growth factor …; assay: flow cytometry, peptide displayed on bacterial cell surface, dissociation of biotinylated VEGF at 37° C.
Procedure: as §1

[8] = target: T2, vascular endothelial growth factor …; assay: flow cytometry, peptide displayed on bacterial cell surface, dissociation of biotinylated VEGF at room temperature
Procedure: as §1

[9] = target: T2, vascular endothelial growth factor …; assay: comparison of room temperature koff values of Table 5, flow cytometry on displayed peptides
Procedure: as §1

[10] = target: T2, vascular endothelial growth factor …; assay: comparison of 37° C. koff values of Table 5, flow cytometry on displayed peptides
Procedure: as §1

[11] = target: T2, vascular endothelial growth factor …; assay: flow cytometry competition; soluble v114 premixed with biotinylated VEGF; competitor: displayed L3.F5A.01, compared with displayed L2.F4.04
Procedure: Biotinylated VEGF was first mixed with various concentrations of soluble v114 peptide (Anaspec); the ratio of soluble peptide to VEGF ranged from ˜2:1 to 5000:1. Cells expressing VEGF binding peptides were then incubated with this VEGF/peptide mixture and allowed to equilibrate at 4° C. After centrifugation, unbound protein/peptide was removed, and the cells were resuspended in SAPE for fluorescence labeling.

T2 sequence (P15692 other isoform, or with tags, fused parts or gaps limits assumed): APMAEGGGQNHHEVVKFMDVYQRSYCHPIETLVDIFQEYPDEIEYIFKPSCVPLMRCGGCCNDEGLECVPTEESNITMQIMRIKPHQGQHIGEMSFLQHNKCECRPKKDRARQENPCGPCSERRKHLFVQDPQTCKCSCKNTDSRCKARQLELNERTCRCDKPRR
biotinylated VEGF, sequence (P15692 207-320 limits assumed): as the sequence (P15692 207-320 limits assumed) above
biotinylated recombinant murine VEGF (rmVEGF), sequence (Q00731 205-317 limits assumed): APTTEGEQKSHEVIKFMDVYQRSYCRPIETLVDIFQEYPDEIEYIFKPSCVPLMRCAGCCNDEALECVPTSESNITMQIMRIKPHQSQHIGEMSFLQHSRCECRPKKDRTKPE

| Molecule | Kd [6] | koff [7] | koff [8] | 37° C. koff (biotinylated VEGF) | RT koff (biotinylated VEGF) | also measured |
| --- | --- | --- | --- | --- | --- | --- |
| VEPNCDIHVMWEWECFERL [v114, soluble peptide from Anaspec; positive control] | – | – | – | – | – | binding of rmVEGF [1]: bound rmVEGF; Kd (VEGF [2]): 110 nM |
| GPGWWLWDWDNLGARRGGL (VEGF-binding peptide) [Clone L2.F3A.10] | – | – | – | – | – | fluorescence labeling when bound to VEGF (VEGF [3]): better labeling |
| WKELRFWDWEGGNHKKCVT (VEGF-binding peptide) [Clone L2.F3B.12] | – | – | – | – | – | dissociation rate (in words) (VEGF [4]): slow dissociation rates |
| NFGYGKWEWDYGKWLEKVG [Clone L2.F4.04] | – | – | – | 0.0013 s⁻¹ | 0.0013 s⁻¹ | dissociation rate (in words) (VEGF [4]): slow dissociation rates; fluorescence labeling when bound to VEGF (VEGF [3]): bright fluorescence signals |
| SKLKTLLWQQGGGSGGGNFGYGKWEWDYGKWLEKV [Clone L3.F6.02, SKLKTLLWQQ-GGGSGGG-NFGYGKWEWDYGKWLEKV] | – | – | – | 0.0014 s⁻¹ | 0.000291 s⁻¹ | – |
| SYVLKEWSVPSWGKPGGGSGGGNFGYGKWEWDYGKWLEKV [Clone L3.F6.01, SYVLKEWSVPSWGKP-GGGSGGG-NFGYGKWEWDYGKWLEKV] | – | – | – | 0.00025 s⁻¹ | 0.00011 s⁻¹ | – |
| AKRSSYSMWGAMPGGGSGGGNFGYGKWEWDYGKWLEKV [Clone L3.F5A.03, AKRSSYSMWGAMP-GGGSGGG-NFGYGKWEWDYGKWLEKV] | – | – | – | 0.0006 s⁻¹ | 4.28e-05 s⁻¹ | – |
| HQQLQYWDWIEAVVHNG (VEGF-binding peptide) [Clone L2.F3A.05] | – | – | – | – | – | dissociation rate (in words) (VEGF [4]): slow dissociation rates |
| SSKCGRWGETPCLAEGGGSGGGNFGYGKWEWDYGKWLEKVG [Clone L3.F5A.01, SSKCGRWGETPCLAE-GGGSGGG-NFGYGKWEWDYGKWLEKVG] | – | – | – | 0.00012 s⁻¹ | 2e-05 s⁻¹ | – |
| CPVQTMWDWECMRAFIEG [Clone L2.F3B.08] | – | – | – | 0.0042 s⁻¹ | 0.0072 s⁻¹ | dissociation rate (in words) (VEGF [4]): good dissociation kinetics; effect of serum addition on VEGF binding fluorescence (VEGF [5]): loses more fluorescence upon serum addition than does L2.F4.04; fluorescence labeling when bound to VEGF (VEGF [3]): bright fluorescence signals |
| VTSRYEMREDGSWKKGGGSGGGNFGYGKWEWDYGKWLEKVG [Clone L3.F5A.02, VTSRYEMREDGSWKK-GGGSGGG-NFGYGKWEWDYGKWLEKVG] | – | – | – | 0.00074 s⁻¹ | – | – |
| NFGYGKWEWDYGKWLEKVG (not shown: CPXopt bacterial display scaffold (carrier)) [L2.F4.04] | 6.1 nM | 0.0013 s⁻¹ | 0.0013 s⁻¹ | – | – | – |
| SSKCGRWGETPCLAEGGGSGGGNFGYGKWEWDYGKWLEKVG (also called bidentate peptide L3.F5A.01; not shown: CPXopt bacterial display scaffold (carrier)) [L3.F5A.01] | 2.1 nM | 0.00012 s⁻¹ | 2e-05 s⁻¹ | – | – | fold improvement (slower dissociation) against the monodendate parent peptide L2.F4.04 [10]: ≤ 12 fold; fold improvement (slower dissociation) against the monodendate parent peptide L2.F4.04 [9]: 4 to 65 fold |
| VEPNCDIHVMWEWECFERL (also called Genentech v114 peptide) [soluble v114 peptide (Anaspec)] | – | – | – | – | – | fold increase in the concentration of v114 required to block 50% of VEGF binding, bidentate peptide against parent peptide [11]: ≥ 5 fold |
| CPVQTMWDWECMRAFIEG (disulfide 1-11 (inferred), not shown: CPXopt bacterial display scaffold (carrier)) [L2.F3B.08] | 17.8 nM | 0.0042 s⁻¹ | 0.0072 s⁻¹ | – | – | – |
| VTSRYEMREDGSWKKGGGSGGGNFGYGKWEWDYGKWLEKVG (not shown: CPXopt bacterial display scaffold (carrier)) [L3.F5A.02] | 2.6 nM | 0.00074 s⁻¹ | – | – | – | – |

More lines, main results first:

| Kd [6] | koff [7] | koff [8] | Molecule | 37° C. koff (biotinylated VEGF) | RT koff (biotinylated VEGF) | also measured |
| --- | --- | --- | --- | --- | --- | --- |
| 5 nM | 0.0014 s⁻¹ | 0.000291 s⁻¹ | SKLKTLLWQQGGGSGGGNFGYGKWEWDYGKWLEKV (Displayed on the E. coli surface as a fusion to CPXopt; the letters do not carry the scaffold., Peptide 2 is printed without the final G of L2.F4.04; not shown: CPXopt bacterial display scaffold that carried the peptide on the cell surface) [L3.F6.02] | – | – | fold improvement (slower dissociation) against the monodendate parent peptide L2.F4.04 [9]: 4 to 65 fold |
| 3.5 nM | 0.00025 s⁻¹ | 0.00011 s⁻¹ | SYVLKEWSVPSWGKPGGGSGGGNFGYGKWEWDYGKWLEKV (Displayed on the E. coli surface as a fusion to CPXopt; the letters do not carry the scaffold., Peptide 2 is printed without the final G of L2.F4.04; not shown: CPXopt bacterial display scaffold that carried the peptide on the cell surface) [L3.F6.01] | – | – | – |
| 3.7 nM | 0.0006 s⁻¹ | 4.28e-05 s⁻¹ | AKRSSYSMWGAMPGGGSGGGNFGYGKWEWDYGKWLEKV (Displayed on the E. coli surface as a fusion to CPXopt; the letters do not carry the scaffold., Peptide 2 is printed without the final G of L2.F4.04; not shown: CPXopt bacterial display scaffold that carried the peptide on the cell surface) [L3.F5A.03] | – | – | – |
